Measurements from patent publication US20230250189A1 (HEIDELBERG PHARMA RESEARCH, published 2023).
Like-named read-outs stand apart in the source and are kept apart here.

Assays:
[1] = target: T1, Prostate specific membrane antigen (PSMA) (human, UniProt Q04609 1-750); assay: flow cytometry on LNCAP cells, FITC anti-human IgG
T1 construct: whole, on cells; The background says that PSMA is a homodimer when enzymatically active; also called glutamate carboxypeptidase II; GCPII
Description: (§1) Pre-confluent LNCAP cells at 80-90% confluence were washed and detached from the plates with trypsin prior to 1-hour incubation at 37° C., 5% CO₂ in the flasks to restore cell surface proteins. Cells were washed and adjusted to 1×10₆ cells/ml in staining media (RPMI-1640, 25 mM HEPES, 3% h.i. FBS and 0.02% sodium azide). Various concentrations of the monoclonal antibody samples (murine wt and 16 humanized variants) ranging from 50 to 0.0032 μg/ml were prepared in staining media and incubated with the cells in pre-cooled 96-well plates for 30 min. on ice to allow antibody binding to the LNCAP cell surface. Subsequently, cells were washed at 4° C. with PBS to remove free antibody, and bound antibody was labelled with FITC goat anti-human IgG H&L preabsorbed (Abcam) secondary antibody for 30 min. on ice. Finally, cells were washed, fixed and FITC fluorescence associated to the antibody bound to the cells was measured by flow cytometry (GUAVA 8HT Cytometer). Data was analyzed using Incyte GuavaSoft 2.7 software (Merck-Millipore). The obtained dose-response data (plotted as log-transformed dose vs. response) typically produced sigmoidal curves with variable slope which were fitted to a 4-parameter logistic dose-response equation using GraphPad Prism software. The EC₅₀ dose, defined as the concentration of antibody that provides half of maximal target cell binding, was used to compare the bioactivity of different antibody variants. Data points represent the average of duplicate wells and standard error of the mean (SEM).

[2] = target: T1, Prostate specific membrane antigen …; assay: flow cytometry on LNCAP cells, FITC anti-human IgG; remark: listed apart in the source
Description: as §1

T1 sequence (Q04609 whole entry): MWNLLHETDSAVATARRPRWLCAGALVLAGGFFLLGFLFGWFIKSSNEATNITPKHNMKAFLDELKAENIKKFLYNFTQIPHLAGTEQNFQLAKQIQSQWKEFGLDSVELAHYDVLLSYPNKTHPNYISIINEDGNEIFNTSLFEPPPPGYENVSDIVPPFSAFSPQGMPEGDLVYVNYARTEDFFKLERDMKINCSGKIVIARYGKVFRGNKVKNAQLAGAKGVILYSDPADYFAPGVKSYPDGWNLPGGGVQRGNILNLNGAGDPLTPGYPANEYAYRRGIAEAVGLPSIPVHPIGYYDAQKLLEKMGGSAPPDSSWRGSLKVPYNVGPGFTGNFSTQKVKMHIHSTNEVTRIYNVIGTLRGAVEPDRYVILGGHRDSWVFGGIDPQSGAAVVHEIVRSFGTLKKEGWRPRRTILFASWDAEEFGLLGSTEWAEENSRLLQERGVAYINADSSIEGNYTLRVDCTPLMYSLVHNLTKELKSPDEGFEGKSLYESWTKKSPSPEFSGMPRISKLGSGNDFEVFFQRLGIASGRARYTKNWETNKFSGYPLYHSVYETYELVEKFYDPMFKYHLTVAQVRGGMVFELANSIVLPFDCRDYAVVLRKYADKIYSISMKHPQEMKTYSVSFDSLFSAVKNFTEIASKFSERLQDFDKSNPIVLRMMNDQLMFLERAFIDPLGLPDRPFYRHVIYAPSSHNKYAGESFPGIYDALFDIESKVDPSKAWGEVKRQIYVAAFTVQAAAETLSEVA

Binder | EC50 [1] | EC50 [2]
3F11-var 6 (antibody, human IgG1, kappa, V domains shown, Expressed from pXC-IgG1zadeltaK and pXC-Kappa vectors) VH: QVQLVQSGAEVKKPGASVKVSCKASGYTFTYFDINWLRQAPGQGLEWMGGISPGDGNTNYAQKFQGRVTLTIDTSTSTAYMELSSLRSEDTAVYYCARDGNFPYYAMDSWGQGTLVTVSS VL: DIVMTQSPLSLPVTPGEPASISCRSSQSLVHSNGQTYLHWYLQKPGQSPQLLIYTVSNRFSGVPDRFSGSGSGTDFTLKISRVEAEDVGVYYCSQSTHVPTFGGGTKVEIKR | 0.219 µg/mL | 0.219 µg/mL
3F11-var 3 (antibody, human IgG1, kappa, V domains shown, Expressed from pXC-IgG1zadeltaK and pXC-Kappa vectors) VH: QVQLVQSGAEVKKPGASVKVSCKASGYTFTYFDINWLRQAPGQGLEWMGGISPGDGNVNYAQKFQGRVTLTIDTSTSTAYMELSSLRSEDTAVYYCARDGNFPYYAMDSWGQGTLVTVSS VL: DIVMTQSPLSLPVTPGEPASISCRSSQSLVHSNGNTYLHWFLQKPGQSPQLLIYTVSNRFSGVPDRFSGSGSGTDFTLKISRVEAEDVGVYFCSQSTHVPTFGGGTKVEIKR | 0.264 µg/mL | 0.264 µg/mL
3F11-var 1 (antibody, human IgG1, kappa, V domains shown, Expressed from pXC-IgG1zadeltaK and pXC-Kappa vectors) VH: QVQLVQSGAEVKKPGASVKVSCKASGYTFTYFDINWLRQAPGQGLEWMGGISPGDGNTNYNENFKGRVTLTIDKSTSTAYMELSSLRSEDTAVYFCARDGNFPYYAMDSWGQGTLVTVSS VL: DIVMTQSPLSLPVTPGEPASISCRSSQSLVHSNGNTYLHWFLQKPGQSPQLLIYTVSNRFSGVPDRFSGSGSGTDFTLKISRVEAEDVGVYFCSQSTHVPTFGGGTKVEIKR | 0.29 µg/mL | 0.29 µg/mL
3F11-var 12 (antibody, human IgG1, kappa, V domains shown, Expressed from pXC-IgG1zadeltaK and pXC-Kappa vectors) VH: QVQLVQSGAEVKKPGASVKVSCKASGYTFTYFDINWLRQAPGQGLEWMGGISPGDSNVNYAQKFQGRVTLTIDTSTSTAYMELSSLRSEDTAVYYCARDGNFPYYAMDSWGQGTLVTVSS VL: DIVMTQSPLSLPVTPGEPASISCRSSQSLVHSSGQTYLHWYLQKPGQSPQLLIYTVSNRFSGVPDRFSGSGSGTDFTLKISRVEAEDVGVYYCSQSTHVPTFGGGTKVEIKR | 0.329 µg/mL | 0.329 µg/mL
3F11-var 11 (antibody, human IgG1, kappa, V domains shown, Expressed from pXC-IgG1zadeltaK and pXC-Kappa vectors) VH: QVQLVQSGAEVKKPGASVKVSCKASGYTFTYFDINWLRQAPGQGLEWMGGISPGDGNVNYAQKFQGRVTLTIDTSTSTAYMELSSLRSEDTAVYYCARDGNFPYYAMDSWGQGTLVTVSS VL: DIVMTQSPLSLPVTPGEPASISCRSSQSLVHSSGQTYLHWYLQKPGQSPQLLIYTVSNRFSGVPDRFSGSGSGTDFTLKISRVEAEDVGVYYCSQSTHVPTFGGGTKVEIKR | 0.339 µg/mL | 0.339 µg/mL
3F11-var 16 (antibody, human IgG1, kappa, V domains shown, Expressed from pXC-IgG1zadeltaK and pXC-Kappa vectors) VH: QVQLVQSGAEVKKPGASVKVSCKASGYTFTYFDINWLRQAPGQGLEWMGGISPGDSNVNYAQKFQGRVTLTIDTSTSTAYMELSSLRSEDTAVYYCARDGNFPYYAMDSWGQGTLVTVSS VL: DIVMTQSPLSLPVTPGEPASISCRSSQSLVHSSGQTYLHWYQQKPGQSPQLLIYTVSNRASGVPDRFSGSGSGTDFTLKISRVEAEDVGTYYCSQSTHVPTFGGGTKVEIKR | 0.248 µg/mL | 0.248 µg/mL
3F11-var 2 (antibody, human IgG1, kappa, V domains shown, Expressed from pXC-IgG1zadeltaK and pXC-Kappa vectors) VH: QVQLVQSGAEVKKPGASVKVSCKASGYTFTYFDINWLRQAPGQGLEWMGGISPGDGNTNYAQKFQGRVTLTIDTSTSTAYMELSSLRSEDTAVYYCARDGNFPYYAMDSWGQGTLVTVSS VL: DIVMTQSPLSLPVTPGEPASISCRSSQSLVHSNGNTYLHWFLQKPGQSPQLLIYTVSNRFSGVPDRFSGSGSGTDFTLKISRVEAEDVGVYFCSQSTHVPTFGGGTKVEIKR | 0.273 µg/mL | 0.273 µg/mL
3F11-var 13 (antibody, human IgG1, kappa, V domains shown, Expressed from pXC-IgG1zadeltaK and pXC-Kappa vectors) VH: QVQLVQSGAEVKKPGASVKVSCKASGYTFTYFDINWLRQAPGQGLEWMGGISPGDGNTNYNENFKGRVTLTIDKSTSTAYMELSSLRSEDTAVYFCARDGNFPYYAMDSWGQGTLVTVSS VL: DIVMTQSPLSLPVTPGEPASISCRSSQSLVHSSGQTYLHWYQQKPGQSPQLLIYTVSNRASGVPDRFSGSGSGTDFTLKISRVEAEDVGTYYCSQSTHVPTFGGGTKVEIKR | 0.25 µg/mL | 0.25 µg/mL
3F11-var 4 (antibody, human IgG1, kappa, V domains shown, Expressed from pXC-IgG1zadeltaK and pXC-Kappa vectors) VH: QVQLVQSGAEVKKPGASVKVSCKASGYTFTYFDINWLRQAPGQGLEWMGGISPGDSNVNYAQKFQGRVTLTIDTSTSTAYMELSSLRSEDTAVYYCARDGNFPYYAMDSWGQGTLVTVSS VL: DIVMTQSPLSLPVTPGEPASISCRSSQSLVHSNGNTYLHWFLQKPGQSPQLLIYTVSNRFSGVPDRFSGSGSGTDFTLKISRVEAEDVGVYFCSQSTHVPTFGGGTKVEIKR | 0.373 µg/mL | 0.373 µg/mL
3F11-var 8 (antibody, human IgG1, kappa, V domains shown, Expressed from pXC-IgG1zadeltaK and pXC-Kappa vectors) VH: QVQLVQSGAEVKKPGASVKVSCKASGYTFTYFDINWLRQAPGQGLEWMGGISPGDSNVNYAQKFQGRVTLTIDTSTSTAYMELSSLRSEDTAVYYCARDGNFPYYAMDSWGQGTLVTVSS VL: DIVMTQSPLSLPVTPGEPASISCRSSQSLVHSNGQTYLHWYLQKPGQSPQLLIYTVSNRFSGVPDRFSGSGSGTDFTLKISRVEAEDVGVYYCSQSTHVPTFGGGTKVEIKR | 0.204 µg/mL | 0.204 µg/mL
3F11-var 14 (antibody, human IgG1, kappa, V domains shown, Expressed from pXC-IgG1zadeltaK and pXC-Kappa vectors) VH: QVQLVQSGAEVKKPGASVKVSCKASGYTFTYFDINWLRQAPGQGLEWMGGISPGDGNTNYAQKFQGRVTLTIDTSTSTAYMELSSLRSEDTAVYYCARDGNFPYYAMDSWGQGTLVTVSS VL: DIVMTQSPLSLPVTPGEPASISCRSSQSLVHSSGQTYLHWYQQKPGQSPQLLIYTVSNRASGVPDRFSGSGSGTDFTLKISRVEAEDVGTYYCSQSTHVPTFGGGTKVEIKR | 0.272 µg/mL | 0.272 µg/mL

Continued, values first:

EC50 [1] | EC50 [2] | Binder
0.304 µg/mL | 0.304 µg/mL | 3F11-var 5 (antibody, human IgG1, kappa, V domains shown, Expressed from pXC-IgG1zadeltaK and pXC-Kappa vectors) VH: QVQLVQSGAEVKKPGASVKVSCKASGYTFTYFDINWLRQAPGQGLEWMGGISPGDGNTNYNENFKGRVTLTIDKSTSTAYMELSSLRSEDTAVYFCARDGNFPYYAMDSWGQGTLVTVSS VL: DIVMTQSPLSLPVTPGEPASISCRSSQSLVHSNGQTYLHWYLQKPGQSPQLLIYTVSNRFSGVPDRFSGSGSGTDFTLKISRVEAEDVGVYYCSQSTHVPTFGGGTKVEIKR
0.244 µg/mL | 0.244 µg/mL | 3F11-var 15 (antibody, human IgG1, kappa, V domains shown, Expressed from pXC-IgG1zadeltaK and pXC-Kappa vectors) VH: QVQLVQSGAEVKKPGASVKVSCKASGYTFTYFDINWLRQAPGQGLEWMGGISPGDGNVNYAQKFQGRVTLTIDTSTSTAYMELSSLRSEDTAVYYCARDGNFPYYAMDSWGQGTLVTVSS VL: DIVMTQSPLSLPVTPGEPASISCRSSQSLVHSSGQTYLHWYQQKPGQSPQLLIYTVSNRASGVPDRFSGSGSGTDFTLKISRVEAEDVGTYYCSQSTHVPTFGGGTKVEIKR
0.284 µg/mL | 0.284 µg/mL | 3F11-var 10 (antibody, human IgG1, kappa, V domains shown, Expressed from pXC-IgG1zadeltaK and pXC-Kappa vectors) VH: QVQLVQSGAEVKKPGASVKVSCKASGYTFTYFDINWLRQAPGQGLEWMGGISPGDGNTNYAQKFQGRVTLTIDTSTSTAYMELSSLRSEDTAVYYCARDGNFPYYAMDSWGQGTLVTVSS VL: DIVMTQSPLSLPVTPGEPASISCRSSQSLVHSSGQTYLHWYLQKPGQSPQLLIYTVSNRFSGVPDRFSGSGSGTDFTLKISRVEAEDVGVYYCSQSTHVPTFGGGTKVEIKR
0.178 µg/mL | 0.178 µg/mL | 3F11-var 7 (antibody, human IgG1, kappa, V domains shown, Expressed from pXC-IgG1zadeltaK and pXC-Kappa vectors) VH: QVQLVQSGAEVKKPGASVKVSCKASGYTFTYFDINWLRQAPGQGLEWMGGISPGDGNVNYAQKFQGRVTLTIDTSTSTAYMELSSLRSEDTAVYYCARDGNFPYYAMDSWGQGTLVTVSS VL: DIVMTQSPLSLPVTPGEPASISCRSSQSLVHSNGQTYLHWYLQKPGQSPQLLIYTVSNRFSGVPDRFSGSGSGTDFTLKISRVEAEDVGVYYCSQSTHVPTFGGGTKVEIKR
0.281 µg/mL | 0.281 µg/mL | 3F11-var 9 (antibody, human IgG1, kappa, V domains shown, Expressed from pXC-IgG1zadeltaK and pXC-Kappa vectors) VH: QVQLVQSGAEVKKPGASVKVSCKASGYTFTYFDINWLRQAPGQGLEWMGGISPGDGNTNYNENFKGRVTLTIDKSTSTAYMELSSLRSEDTAVYFCARDGNFPYYAMDSWGQGTLVTVSS VL: DIVMTQSPLSLPVTPGEPASISCRSSQSLVHSSGQTYLHWYLQKPGQSPQLLIYTVSNRFSGVPDRFSGSGSGTDFTLKISRVEAEDVGVYYCSQSTHVPTFGGGTKVEIKR
